Experimental data published in patent US20250009896.

Tested on: T1, Free DX600 peptide
T1 sequence: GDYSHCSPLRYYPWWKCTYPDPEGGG

Recombinant human angiotensin-converting enzyme 2 (ACE2) protein, carrier-free (R&D Systems)
initial velocity of ACE2 cleavage of fluorogenic substrate: there is no appreciable difference in the initial velocity of ACE2 cleavage in the presence of Ligand in comparison to the free DX600 peptide alone
